Reference: patent publication US20200255869

Biological target: purified HSA (Abcam, ab201876) (UniProt P02768)
Chain of UniProt P02768 (P02768 whole entry, looked up): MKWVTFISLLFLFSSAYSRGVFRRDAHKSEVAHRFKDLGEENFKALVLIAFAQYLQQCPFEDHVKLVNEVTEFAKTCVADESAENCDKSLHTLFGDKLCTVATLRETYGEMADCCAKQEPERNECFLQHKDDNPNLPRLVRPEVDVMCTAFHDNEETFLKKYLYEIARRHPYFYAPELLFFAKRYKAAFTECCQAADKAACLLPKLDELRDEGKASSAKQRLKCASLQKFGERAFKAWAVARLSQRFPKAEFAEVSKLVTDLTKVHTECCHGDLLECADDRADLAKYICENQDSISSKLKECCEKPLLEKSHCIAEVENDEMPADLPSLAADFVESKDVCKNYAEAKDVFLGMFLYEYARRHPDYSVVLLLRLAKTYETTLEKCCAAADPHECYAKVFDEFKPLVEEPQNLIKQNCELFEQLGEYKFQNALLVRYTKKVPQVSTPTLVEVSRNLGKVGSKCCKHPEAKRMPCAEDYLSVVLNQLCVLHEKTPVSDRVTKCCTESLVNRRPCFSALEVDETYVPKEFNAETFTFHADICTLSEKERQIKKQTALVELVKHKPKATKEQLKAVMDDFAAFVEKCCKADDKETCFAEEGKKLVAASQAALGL

Substance: YscB protein of Talaromyces cellulolyticus strain S6-25
- degradation of purified HSA mixed with culture supernatant (30 C, 3 days), SDS-PAGE and Western blotting using an anti-HSA antibody: in the case of the strain deficient in yscB, the bands corresponding to degradation products were eliminated
